According to patent US20170015742A1 (published 2017):

B1: BDI-1E1-D5 (antibody, IgG2b, V domains shown)
VH: EVKLQQSGDELVRPGASVKMSCKASGYTFTDYVMHWVKQSPGQGLEWIGTIIPLIDTTSYNQKFKGKATLTADKSSNTAYMELSRLTSEDSAVYYCARTSPYYYSSYDVMDAWGQGASVTVSS
VL: NIQLTQSPSLLSASVGDRVTLSCKGSQNINNYLAWYQQKLGEAPKLLIYKTNNLQTGIPSRFSGCGSGTDYTLTISSLHSEDLATYYCYQYDNGYTFGAGTKLELK
notes: Rat hybridoma monoclonal antibody
B2: BDI-5G2-F9 (antibody, IgG2b, V domains shown)
VH: QVTLKESGPGILQPSQTLSLTCTFSGFSLSTFGMGVGWIRQPSGKGLEWLANIWWDDDKYYNPSLKNRLTISKDTSNSQAFLEITNVDTADTATYYCARISTGISSYYVMDAWGQGASVTVSS
VL: QFTLTQPKSVSGSLRSTITIPCERSSGDIGDTYVSWYQQHLGRPPINVIYGNDQRPSEVSDRFSGSIDSSSNSASLTITNLQMDDEADYFCQSYDSDIDIVFGGGTKLTVL
notes: as for B1
B3: BDI-6A3-A9 (antibody, IgG2b, V domains shown)
VH: EVQLVESGGGLVQPGRSLKFSCAASGFSFSDSAMAWVRQAPKKGLEWVATIIYDGSGTYYRDSVKGRFTISRDNAKSTLYLQMDSLRSEDTATYYCARLGFNYGNYGYYVMDAWGQGASVTVSS
VL: QFTLTQPKSVSGSLRNTITIPCERSSGDIGDSYVSWYQQHLGRPPINVIFADDQRPSEVSDRFSGSIDSSSNSASLTITNLQMDDEADYFCQSYDSNIDINIVFGGGTKLTVL
notes: as for B1
B4: hBDI-9E8.8 (antibody, V domains shown)
VH: EVTLRESGPALVKPTQTLTLTCTFSGFSLSTYGMGVGWIRQPPGKGLEWLANIWWDDDKYYNPSLKNRLTISKDTSKNQAVLTITNMDPVDTATYYCARIESIGTTYSFDYWGQGTMVTVSS
VL: EFVLTQSPGTLSLSPGERATLSCERSSGDIGDSYVSWYQQKPGQAPRLVIYADDQRPSGIPDRFSGSGSGTDFTLTISRLEPEDFAVYYCQSYDINIDIVFGGGTKVEIK
notes: Humanized IgG
B5: hBDI-9E8.13 (antibody, V domains shown)
VH: EVTLRESGPALVKPTQTLTLTCTFSGFSLSTYGMGVGWIRQPPGKGLEWLANIWWDDDKYYNPSLKNRLTISKDTSKNQAVLTITNMDPVDTATYYCARIESIGTTYSFDYWGQGTMVTVSS
VL: DFQLTQSPSSLSASVGDRVTITCERSSGDIGDSYVSWYQQKPGKAPKNVIYADDQRPSGVPSRFSGSGSGNSASLTISSLQPEDFATYYCQSYDINIDIVFGQGTKVEIK
notes: Humanized IgG
B6: hBDI-5H1.7 (antibody, V domains shown)
VH: EVTLKESGPALVKPTQTLTLTCTFSGFSLSTFGMGVGWIRQPPGKALEWLANIWWDDDKYYNPSLKNRLTISKDTSKNQAVLTITNMDPVDTATYYCARISTGISSYYVMDAWGQGTTVTVSS
VL: EIVLTQSPGTLSLSPGERATLSCERSSGDIGDTYVSWYQQKPGQAPRLLIYGNDQRPSGIPDRFSGSGSGTDFTLTISRLEPEDFAVYYCQSYDSDIDIVFGGGTKVEIK
notes: Humanized IgG
B7: hBDI-5H1.8 (antibody, V domains shown)
VH: EVTLKESGPALVKPTQTLTLTCTFSGFSLSTFGMGVGWIRQPPGKALEWLANIWWDDDKYYNPSLKNRLTISKDTSKNQAVLTITNMDPVDTATYYCARISTGISSYYVMDAWGQGTTVTVSS
VL: EFVLTQSPGTLSLSPGERATLSCERSSGDIGDTYVSWYQQKPGQAPRLVIYGNDQRPSGIPDRFSGSGSGTDFTLTISRLEPEDFAVYYCQSYDSDIDIVFGGGTKVEIK
notes: Humanized IgG
B8: hBDI-5H1.13 (antibody, V domains shown)
VH: EVTLKESGPALVKPTQTLTLTCTFSGFSLSTFGMGVGWIRQPPGKALEWLANIWWDDDKYYNPSLKNRLTISKDTSKNQAVLTITNMDPVDTATYYCARISTGISSYYVMDAWGQGTTVTVSS
VL: DFQLTQSPSSLSASVGDRVTITCERSSGDIGDTYVSWYQQKPGKAPKNVIYGNDQRPSGVPSRFSGSGSGNSATLTISSLQPEDFATYFCQSYDSDIDIVFGQGTKVEIK
notes: Humanized IgG

What was measured:
[1] = target: T1, recombinant human PDGF-BB (human, UniProt P01127 82-190); assay: competition ELISA: blocks biotin-hPDGF-BB binding to coated hPDGF-Rβ-Fc
T1 construct: Bought (CST cat#8912BF), biotinylated for the ELISAs; Dimer of two B chains; also called huPDGF-BB; hPDGF-BB
Protocol: Plates were then washed four times with wash buffer (TBS, 0.05% Tween-20) and blocked with Superblock blocking buffer (Thermo Scientific, cat#37535). During the blocking step, supernatants, antibodies, benchmark compounds or DVD-Ig were diluted in assay diluent (10% Superblock containing 0.05% surfactamps) and an eight point titration of each sample molecule was performed. […] Following incubation, plates were washed four times with wash buffer. Detection reagent Streptavidin-polyHRP-40 (Fitzgerald, cat#65r-s104phrp) was diluted in assay diluent and added to plates (50 μL) for 45 minutes at 25° C. with shaking. Plates were washed four times with wash buffer and developed with the addition of Enhanced K-blue TMB substrate (Neogen, cat#308177). The reaction was stopped with 2N sulfuric acid (VWR, cat# BDH3500-1) and the absorbance was read at 450 nm-570 nm. […] Data was analyzed using Softmax Pro 4.8 software and IC₅₀ values calculated using a sigmoidal dose response (variable slope) fit in GraphPad Prism 5.

[2] = target: T1, recombinant human PDGF-BB; assay: cell-based or functional assay
Human PDGF-BB [3] = target: T2, Human PDGF-BB (human, UniProt P01127 82-190); assay: SPR (Biacore), antibody captured via anti-human Fc, antigen in solution; footnote *: heterogeneous off-rate
T2 construct: Recombinant human PDGF-BB, a homodimer of two B chains; also called hPDGF-BB; huPDGF-BB
Protocol: For example, approximately 9000 RU of goat anti-human Fc specific polyclonal antibody (Thermo Fisher Scientific Inc., Rockford, Ill.) diluted in 10 mM sodium acetate (pH 4.5) is directly immobilized across a CM5 research grade biosensor chip using a standard amine coupling kit according to manufacturer's instructions and procedures at 25 μg/ml. Unreacted moieties on the biosensor surface were blocked with ethanolamine. For kinetic analysis, rate equations derived from the 1:1 Langmuir binding model were fitted simultaneously to multiple antigen injections (using global fit analysis) with the use of Scrubber 2 (BioLogic Software), Biacore Biaevaluation 4.0.1 software or Biacore T100 Evaluation software. Purified antibodies or DVD-Ig molecules were diluted in running buffer for capture across goat anti-human Fc reaction surfaces. Antibodies or DVD-Ig molecules to be captured as a ligand (1 μg/ml) were injected over reaction matrices at a flow rate of 10 μl/minute. During the assay, all measurements were referenced against the capture surface alone (i.e., with no captured antibody or DVD-Ig molecule). […] The equilibrium dissociation constant KD (M) of the reaction between antibodies and the target antigen was then calculated from the kinetic rate constants by the following formula: KD=Koff/Kₒₙ. Binding was recorded as a function of time and kinetic rate constants were calculated.

Human PDGF-BB [4] = target: T2, Human PDGF-BB; assay: SPR (Biacore), antibody captured via anti-human Fc, antigen in solution
Outline: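 Antibodies or DVD-Ig molecules (1 μg/ml) were captured on an anti-human Fc CM5 surface, with antigen injected in solution and responses referenced to the capture-only surface. Rate constants came from a global 1:1 Langmuir fit, and KD = koff/kon.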

T1 sequence (P01127 82-190 limits assumed): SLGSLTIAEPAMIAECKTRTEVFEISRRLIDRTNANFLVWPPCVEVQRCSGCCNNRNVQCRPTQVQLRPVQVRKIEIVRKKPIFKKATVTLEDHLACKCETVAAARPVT
T2 sequence (P01127 82-190 limits assumed): as above

Binder | IC50 [1] | Phospho-Tyr751/hPDGF-BB Neutralization [2] | huPDGF-BB Neutralization Potency (nM) in NIH-3T3 Cells [2] | Kd (Human PDGF-BB [3]) | kon (Human PDGF-BB [4])
B1 | > 10 nM | 1.06 nM | > 5 nM | – | –
B2 | 1.06 nM | 0.923 nM | 0.741 nM | – | –
B3 | 3.23 nM | 1.62 nM | > 5 nM | – | –
B4 | – | – | – | ≤ 0.017 nM | ≥ 1e+07 M⁻¹ s⁻¹
B5 | – | – | – | ≤ 0.1 nM | ≥ 1e+07 M⁻¹ s⁻¹
B6 | – | – | – | ≤ 2.9 nM | ≥ 1e+07 M⁻¹ s⁻¹
B7 | – | – | – | ≤ 72 nM | ≥ 1e+07 M⁻¹ s⁻¹
B8 | – | – | – | ≤ 0.49 nM | ≥ 1e+07 M⁻¹ s⁻¹
